# What was measured:
# Assay in all cases: two-hybrid library CCNG1;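 note: natural log of median RNA to DNA barcode read ratio; higher means stronger binding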
# 4H3907-bH = target: T1, 4H3907-bH
# T1 chain: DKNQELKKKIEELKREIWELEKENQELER
# 4H344-bH = target: T2, 4H344-bH
# T2 chain: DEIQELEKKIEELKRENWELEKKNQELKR
# 4H470-bH = target: T3, 4H470-bH
# T3 chain: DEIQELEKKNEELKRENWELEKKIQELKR
# 4H2745-bH = target: T4, 4H2745-bH
# T4 chain: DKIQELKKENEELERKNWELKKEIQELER
# 4H2619-bH = target: T5, 4H2619-bH
# T5 chain: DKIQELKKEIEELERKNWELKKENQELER
# 4H2568-bH = target: T6, 4H2568-bH
# T6 chain: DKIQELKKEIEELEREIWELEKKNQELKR
# 4H3189-bA = target: T7, 4H3189-bA
# T7 chain: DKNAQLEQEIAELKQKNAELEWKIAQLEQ
# 4H363-bH = target: T8, 4H363-bH
# T8 chain: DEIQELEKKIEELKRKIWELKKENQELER
# 4H3961-bH = target: T9, 4H3961-bH
# T9 chain: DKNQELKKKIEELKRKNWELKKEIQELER
# 4H3057-bA = target: T10, 4H3057-bA
# T10 chain: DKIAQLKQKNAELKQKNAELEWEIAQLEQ
# 4H477-bA = target: T11, 4H477-bA
# T11 chain: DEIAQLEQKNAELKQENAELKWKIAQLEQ
# 4H2717-bA = target: T12, 4H2717-bA
# T12 chain: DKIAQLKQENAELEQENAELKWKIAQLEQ
# 4H2839-bA = target: T13, 4H2839-bA
# T13 chain: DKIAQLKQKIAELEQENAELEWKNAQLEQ
# 4H2588-bA = target: T14, 4H2588-bA
# T14 chain: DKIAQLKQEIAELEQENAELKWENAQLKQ
# 4H741-bA = target: T15, 4H741-bA
# T15 chain: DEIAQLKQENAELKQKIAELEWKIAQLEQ
# 4H3277-bA = target: T16, 4H3277-bA
# T16 chain: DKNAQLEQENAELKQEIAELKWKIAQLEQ
# 4H2473-bA = target: T17, 4H2473-bA
# T17 chain: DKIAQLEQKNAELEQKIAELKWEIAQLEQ
# 4H2503-bA = target: T18, 4H2503-bA
# T18 chain: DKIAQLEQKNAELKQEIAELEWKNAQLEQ
# P11A-bS = target: T19, P11A-bS
# T19 chain: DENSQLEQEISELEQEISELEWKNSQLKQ
# 4H319-bA = target: T20, 4H319-bA
# T20 chain: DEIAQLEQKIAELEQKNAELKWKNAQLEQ
# 4H348-bA = target: T21, 4H348-bA
# T21 chain: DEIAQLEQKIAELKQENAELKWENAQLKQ
# 4H492-bA = target: T22, 4H492-bA
# T22 chain: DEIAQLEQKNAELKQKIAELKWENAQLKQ
# 4H2915-bA = target: T23, 4H2915-bA
# T23 chain: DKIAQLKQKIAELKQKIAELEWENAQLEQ
# 4H40-bA = target: T24, 4H40-bA
# T24 chain: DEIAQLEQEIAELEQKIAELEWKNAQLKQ
# 4H2692-bA = target: T25, 4H2692-bA
# T25 chain: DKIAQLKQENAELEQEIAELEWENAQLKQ
# P8bHq = target: T26, P8bHq
# T26 chain: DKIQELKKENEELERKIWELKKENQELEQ
# P1bHq = target: T27, P1bHq
# T27 chain: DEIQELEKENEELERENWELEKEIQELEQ
# P2bHq = target: T28, P2bHq
# T28 chain: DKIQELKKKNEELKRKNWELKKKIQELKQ
# P5bHq = target: T29, P5bHq
# T29 chain: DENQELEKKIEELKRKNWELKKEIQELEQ
# P6bHq = target: T30, P6bHq
# T30 chain: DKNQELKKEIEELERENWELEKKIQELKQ
# P3bHq = target: T31, P3bHq
# T31 chain: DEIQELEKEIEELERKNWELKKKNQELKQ
# P7bHq = target: T32, P7bHq
# T32 chain: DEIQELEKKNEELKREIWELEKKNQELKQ
# P9bHq = target: T33, P9bHq
# T33 chain: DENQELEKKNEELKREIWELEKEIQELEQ
# P4bHq = target: T34, P4bHq
# T34 chain: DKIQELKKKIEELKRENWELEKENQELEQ
binder,measurement,setting,value
DKIQELKKEIEELEREIWELEKKNQELKR [4H2568-bH],interaction score,4H3907-bH,1.31
same,interaction score,4H344-bH,0.802
same,interaction score,4H470-bH,-1.26
same,interaction score,4H2745-bH,-0.189
same,interaction score,4H2619-bH,1.65
same,interaction score,4H2568-bH,2.17
same,interaction score,4H3189-bA,0.615
same,interaction score,4H363-bH,1.72
same,interaction score,4H3961-bH,2.42
DKIAQLEQKNAELEQKIAELKWEIAQLEQ [4H2473-bA],interaction score,4H3057-bA,0.511
same,interaction score,4H477-bA,-0.946
same,interaction score,4H2717-bA,-0.42
same,interaction score,4H2839-bA,-0.648
same,interaction score,4H2588-bA,-1.02
same,interaction score,4H741-bA,-1.42
same,interaction score,4H3277-bA,-1.53
same,interaction score,4H2473-bA,0.144
same,interaction score,4H2503-bA,0.82
same,interaction score,P11A-bS,-0.676
same,interaction score,4H319-bA,-0.981
same,interaction score,4H348-bA,-1.44
same,interaction score,4H492-bA,-1.09
same,interaction score,4H2915-bA,0.904
same,interaction score,4H40-bA,-0.325
same,interaction score,4H2692-bA,0.426
DEIQELEKENEELERENWELEKEIQELEQ [P1bHq],interaction score,P8bHq,-0.272
same,interaction score,P1bHq,-0.606
same,interaction score,P2bHq,1.87
same,interaction score,P5bHq,-0.887
same,interaction score,P6bHq,-0.273
same,interaction score,P3bHq,-1.03
same,interaction score,P7bHq,-0.288
same,interaction score,P9bHq,-1.78
same,interaction score,P4bHq,-0.52
